Data: PMC5218472 (PLoS Biology, 2017)

Tests used:
[1] = test system: ADAM10; experiment: Ionomycin-induced ADAM10-mediated IL-6R ectodomain shedding in transiently transfected HEK293 cells, sIL-6R ELISA; type: cell-based, human; settings: for sIL-6R shedding, Figure S4E, mean / sIL-6R shedding, Figure S4B, mean: normalised to PV Iono = 100; for sIL-6R shedding, Figure S4G, mean: normalised to PVQD Iono = 100
Description: (§1) Analysis of IL-6R ectodomain shedding in transiently transfected HEK293 cells or stably transduced Ba/F3-gp130 cell lines by ADAM10 and ADAM17 has been described elsewhere. Analysis of IL-6R proteolysis by CG has been described previously.
(§2) The sandwich ELISA, which detects sIL-6R as well as ds-sIL-6R (4-11/Baf227 antibodies) and can be used to quantify total sIL-6R serum levels, was described previously. To specifically detect ds-sIL-6R (either recombinant or in human serum), a similar approach was used (ds6R/Baf227). Both sandwich ELISAs were performed with streptavidin-horseradish peroxidase (R&D Systems, Minneapolis, Minnesota, US) and the peroxidase substrate BM blue POD (Roche, Mannheim, Germany). The enzymatic reaction was stopped by addition of 1.8 M sulfuric acid, and the absorbance read at 450 nm on a Tecan rainbow reader (Tecan, Crailsheim, Germany).
Supplementary file pbio.2000080.s004.tif: S4 Fig Mutation of Val-356 is sufficient to block ADAM10-mediated proteolysis of the IL-6R and the Asp358Ala variant. (A) HEK293 cells were transiently transfected with Expression plasmids encoding the wildtype IL-6R (PV) or the double mutants (IE, DG) as indicated. Cells were either treated with 1 μM ionomycin for 1 h or DMSO as vehicle control. sIL-6R was precipitated from the supernatant with concanavalin A-covered Sepharose beads, and cells were lysed. Both were analyzed via Western blot, and β-actin served as loading control. One out of three experiments with similar outcome is shown. (B, C) The experiment was performed as described under (A), but sIL-6R generation was analyzed via ELISA. In (B), the amount of sIL-6R generated after ionomycin-stimulation of the wildtype IL-6R (PV) was set to 100%, and all other values were calculated accordingly. In (C), the amount of sIL-6R without stimulation was considered as constitutive shedding and set to 1 and the increase of sIL-6R was calculated. Data shown are the mean ± SD from at least three independent experiments (*p<0.05, ns = no significant difference). (D-F) HEK293 cells were transiently transfected with expression plasmids encoding the wildtype IL-6R (PV) or the single mutants (DV, IV, PE, PG) as indicated. The experiments were performed as described in (A) to (C). (G) ADAM10-mediated proteolysis of the IL-6R variants depicted in Fig 4I was analyzed as described in (B). (H) Equal numbers of Ba/F3-gp130-IL-6R_DG cells were incubated for 48 h with increasing amounts (0–100 ng/ml) of either IL-6 or Hyper-IL-6. One representative experiment out of three performed is shown (mean ± SD, biological triplicates). (TIF) Click here for additional data file.

[2] = test system: ADAM17; experiment: PMA-induced ADAM17-mediated IL-6R ectodomain shedding in transiently transfected HEK293 cells, sIL-6R ELISA; type: cell-based, human; settings: for increase of sIL-6R after PMA (unstimulated = 1), mean: 100 nM PMA 2 h vs DMSO
Description: Fig 4 Mutation of Val-356 is sufficient to block proteolysis of the IL-6R and the Asp358Ala variant. (A) Amino-acid residues from Asp-340 to Ala-370 of the human IL-6R. The identified cleavage site between Pro-355 (P1) and Val-356 (P1′) is indicated. (B) Overview of the six different IL-6R cleavage site mutants. Mutations are colored in either green or blue; the amino-acid residues of the wild-type cleavage site are shown in red. (C) HEK293 cells were transiently transfected with expression plasmids encoding the wild-type IL-6R (PV) or the double mutants (IE, DG) as indicated. Cells were either treated with 100 nM PMA for 2 h or DMSO as vehicle control. sIL-6R was precipitated from the supernatant with concanavalin A-covered sepharose beads, and the cells were lysed. Both were analyzed via western blot, and β-actin served as the loading control. One out of three experiments with similar outcomes is shown. (D, E) The experiment was performed as described under (C), but sIL-6R generation was analyzed via ELISA. In (D), the amount of sIL-6R generated after PMA stimulation of the wild-type IL-6R (PV) was set to 100%, and all other values were calculated accordingly. In (E), the amount of sIL-6R without stimulation was considered as constitutive shedding and set to 1, and the increase of sIL-6R was calculated. Data shown are the mean ± SD from at least three independent experiments (*p < 0.05, ns = no significant difference). (F–H) HEK293 cells were transiently transfected with expression plasmids encoding the wild-type IL-6R (PV) or the single mutants (DV, IV, PE, PG) as indicated. The experiments were performed as described in (C) to (E). (I) Overview of the four different IL-6R cleavage site mutants of the IL-6R Asp358Ala variant. Mutations are colored in either green or blue, the amino-acid residues of the wild-type cleavage site are shown in red, and the Asp358Ala single nucleotide polymorphism (SNP) is colored in orange. (J) ADAM17-mediated proteolysis of the IL-6R variants depicted in (I) were analyzed as described in (D). (K–M) Equal numbers of Ba/F3-gp130 cells were incubated for 48 h with increasing amounts (0–100 ng/ml) of either IL-6 or Hyper-IL-6. The stably transduced IL-6R variant is indicated above the diagram. One representative experiment out of three performed is shown (mean ± SD, biological triplicates).
as §1, §2

B1: PV: wild-type human IL-6R, cleavage site Pro-355/Val-356 (protein)
chain: LAPRRCPAQEVARGVLTSLPGDSVTLTCPGVEPEDNATVHWVLRKPAAGSHPSRWAGMGRRLLLRSVQLHDSGNYSCYRAGRPAGTVHLLVDVPPEEPQLSCFRKSPLSNVVCEWGPRSTPSLTTKAVLLVRKFQNSPAEDFQEPCQYSQESQKFSCQLAVPEGDSSFYIVSMCVASSVGSKFSKTQTFQGCGILQPDPPANITVTAVARNPRWLSVTWQDPHSWNSSFYRLRFELRYRAERSKTFTTWMVKDLQHHCVIHDAWSGLRHVVQLRAQEEFGQGEWSEWSPEAMGTPWTESRSPPAENEVSTPMQALTTNKDDDNILFRDSANATSLPVQDSSSVPLPTFLVAGGSLAFGTLLCIAIVLRFKKTWKLRALKEGKTSMHPPYSLGQLVPERPRPTPVLVPLISPPVSPSSLGSDNTSSHNRPDARDPRSPYDISNTDYFFPR
modifications: N-linked glycans at Asn-55, Asn-93, Asn-221, Asn-245 and Asn-350, O-linked glycan at Thr-352 (mapped on sIL-6R shed from transfected HEK293 cells)
- ratio of sIL-6R Iono / DMSO, Figure S4F, mean ([1]; mean of n = 3): 3.48
- ratio of sIL-6R Iono / DMSO, Figure S4C, mean ([1]; mean of replicates): 2.623
- sIL-6R shedding, Figure S4E, mean ([1]; treatment DMSO, mean of n = 3): 35.7033
- sIL-6R shedding, Figure S4B, mean ([1]; treatment DMSO, mean of replicates): 40.5833
- sIL-6R shedding, Figure S4G, mean ([1]; treatment DMSO, mean of n = 3): 48.1333
- sIL-6R shedding, Figure S4E, mean ([1]; treatment Iono, mean of n = 3): 100
- sIL-6R shedding, Figure S4B, mean ([1]; treatment Iono, mean of replicates): 100
- sIL-6R shedding, Figure S4G, mean ([1]; treatment Iono, mean of n = 3): 100
- increase in sIL-6R generation compared to vehicle-treated cells ([2]; 100 nM PMA 2 h, HEK293, ELISA, mean ± SD): 3.6 ± 1.9 fold
- sIL-6R in supernatant (PMA-stimulated PV = 100%), mean ([2]; Fig 4D, 100 nM PMA, 2 h, mean of at least 3 independent experiments): 100%
- sIL-6R in supernatant (PMA-stimulated PV = 100%), mean ([2]; Fig 4D, DMSO vehicle, 2 h (constitutive shedding), mean of at least 3 independent experiments): 34.05%
- increase of sIL-6R after PMA (unstimulated = 1), mean ([2]; Fig 4E, mean): 3.59 fold
- sIL-6R in supernatant (PMA-stimulated PV = 100%), mean ([2]; Fig 4G, 100 nM PMA, 2 h, mean of 3): 100%
- sIL-6R in supernatant (PMA-stimulated PV = 100%), mean ([2]; Fig 4G, DMSO, 2 h, mean of 3): 36.7867%
- increase of sIL-6R after PMA (unstimulated = 1), mean ([2]; Fig 4H, mean of 3): 2.73 fold
